# From article PMC5148205
# Molecular target: T1, H-NS (Shewanella oneidensis MR-1) (UniProt Q8ECJ6)
# T1 sequence: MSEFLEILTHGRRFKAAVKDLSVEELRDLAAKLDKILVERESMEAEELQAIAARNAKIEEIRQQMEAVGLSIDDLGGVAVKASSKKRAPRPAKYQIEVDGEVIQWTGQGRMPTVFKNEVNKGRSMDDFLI
# Assay: EMSA
# Conditions: H-NS incubated with biotin-labelled probe with or without unlabelled probe, 1 h at different temperatures; binding buffer not stated (refers to Liu et al. 2015)
row,Sequence,binding
1,GATTTTCTAGTGACAGAAGGTTTTAGCGTTGATAATGCCAAATATGCTGAATTATTTTTGAGACCGAGTAAATTTCTTAGGGGACCAAAAAAACGCATATAATACAATGGATAATGCAATTTAGGTGAGCAAAGGGGACCGTTTTTACCCCGTTTATTCATGCTTCATAACCATCTAATCTCAGGGTTGTAGACGTTTATTCACAACTCTGAGGACGATTATGAACACAACTCTCAC (double strand) [PalpA (alpA promoter)],binds
2,TAGCGATGAAATGGCTTTTTGGGTGGCGGTTTATCGTGATTAACGCAGAAGGTGAAGCGTGGTACATCGATGTTAAACCTGATGCCAAAGTAAAACCTGTTGGTAAAAATAAGGACGGTGCATAATGTTTCAGCAAGAAATAGAAGCTATGCAGGGTAAAGTGGTGCAGCAG (double strand) [PSO_3012 (LambdaSo excisionase promoter)],no binding
